The subject of one test is BaF3/PRLR cells. The test can be described thus: In vitro combination of anti-PRLR mAbs and chemotherapeutics, cell survival (CellTiter Glo). The format is cell-based. Particulars: 5 days. How it is done:
Cell survival was determined by CellTiter Glo analysis and is reported aS RLU (y-axis).
Due to the possibility that a potential anti-PRLR therapeutic antibody may be administered in conjunction with cytotoxic drug regimens in the clinic, the effects of such combination therapies on cell survival in culture was investigated. […] An array of clinically-relevant and mechanistically diverse cytotoxic agents were utilized in this assay: Doxorubicin (an anthracycline Topo II inhibitor), Taxol (a microtubule stabilizing agent), Fludarabine (an anti-metabolite), and Cisplatin (a platinum-based DNA cross-linking drug).
For orientation: ATP-based viability assays read luminescence as a measure of living cells.

The target of a further test is T1, cynomolgus PRLR ECD (Macaca fascicularis, UniProt A0A2K5WXK1).
T1 construct: antibodies against human and cynomolgus PRLR ECD
T1 sequence (A0A2K5WXK1 25-234): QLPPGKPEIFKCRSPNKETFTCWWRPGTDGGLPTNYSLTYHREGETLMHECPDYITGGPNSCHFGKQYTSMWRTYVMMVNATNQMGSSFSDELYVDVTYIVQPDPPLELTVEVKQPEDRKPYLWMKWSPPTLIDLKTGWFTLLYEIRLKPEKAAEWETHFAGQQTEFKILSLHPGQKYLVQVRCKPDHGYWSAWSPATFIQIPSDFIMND
The test can be described thus: Biacore kinetic titration, antibody captured on Protein A/G. The format is binding. The following applies: Table 9, Cyno PRLR ECD; unit not given. The procedure:
(§1) Affinity of the chimerized and HUMAN ENGINEERED™ antibodies determined by Biacore analysis. Briefly, a CM5 sensor chip (Biacore) immobilized with Protein A/G (Pierce) via NHS/EDC was used to capture approximately 600 RU of antibody on the chip surface. Five concentrations of PRLR ECD beginning at 5 ug/mL (185 nM) and serially diluted at 5× dilution to 0.3 nM were injected from lowest to highest concentration in the kinetic titration injection mode, and 15 minutes of dissociation data was collected. The experiments were double-referenced, i.e. an adjacent flow cell response was subtracted automatically, and the response from a buffer injection experiment was subtracted from the experimental data set. Kinetic and derived parameters (ka, kd and KD) were determined by fitting to a 1:1 Langmuir model using BiaEval software customized to the kinetic titration injection mode. Affinity measurements of both chimeric and all HUMAN ENGINEERED™ antibodies against human and cynomolgus PRLR ECD are summarized in Table 9 and Table 10.

For a further test, the target named is T2, human PRLR ECD (Homo sapiens, UniProt P16471).
T2 construct: His6 (C); made in house; host or cells: Tn5 insect cells, baculovirus
T2 sequence (P16471 25-234): T1 sequence (A0A2K5WXK1 25-234) with V76I, T110A, M125I, T158I, I207T
Described as above. The following applies: Table 9, Human PRLR ECD; unit not given. The format is binding. How it is done: as §1

The subject of test [1] is PRL-induced phospho-PRLR and phospho-Stat5. Put plainly: PRL-induced PRLR and STAT5 phosphorylation in T47D cells by Western blot. The format is cell-based, human. The procedure:
Cells were pre-treated with 1 ug/ml mAb prior to 30 min stimulation with 50 ng/ml PRL. Lysates were analyzed for the presence of phospho-PRLR using antibodies specific for phosphotyrosine residues 546 and 611 of the PRLR.
T47D cells were incubated with 1 or 10 ug/ml mAb, then treated with or without PRL (50 ng/ml) for an additional 30 min.
The ability of selected antibodies to inhibit PRL-induced phosphorylation of STAT5 and AKT was determined as follows. Cells were seeded overnight in 6 well plates at a density of 3×10^5 cells/ml in phenol red-free RPMI/10% FBS. The following day, media was replaced with serum-free RPMI for 30 min. In some experiments, anti-PRLR or non-specific control antibodies were incubated with cells during this serum starvation period. 50 ng/ml PRL was then added to wells for 30 min, after which cells were rinsed once in PBS and lysed in a buffer consisting of 50 mM Tris-HCl, pH7.5, 150 mM NaCl, 1 mM EDTA, 1% NP-40, 1 mM Na3OV4, 50 mM NaF, 0.25% deoxycholate and protease inhibitors. Tubes were spun down at 14,000 rpm in a refrigerated microfuge and lysates were quantitated using BCA reagents. 30 μg of whole cell lysate was separated by 10% SDS-PAGE and proteins were detected using phospho-specific antibodies for STAT5A/B (Y694/Y699, Upstate) or PRLR (Y546/Y611, in-house) and ECL. Equal protein loading was determined by staining with antibodies specific for total STAT5 (BD) or PRLR (Zymed) or AKT (Cell Signalling). Results of a representative assay of effect of a PRLR-specific antibody on PRLR intracellular phosphorylation are shown in FIG. 6.
Chimeric mAbs were analyzed for their ability to inhibit the proliferation and survival of BaF/PRLR cells [FIG. 11]. […] In order to assess the PRLR signal-neutralizing capability of the chimeric antibodies in a human breast cancer model, T47D cells were treated with 1 ug/ml mAb for 30 min prior to PRL stimulation. At the same time, additional cell samples were incubated with antibody alone to examine any potential agonism gained through chimerization of the antibody candidates.
Antibodies were assessed in target modulation and cell proliferation assays. FIG. 16 depicts the effect of 2 concentrations of chXHA.06.642 and HUMAN ENGINEERED™ antibodies he.06.642-1 and he.06.642-2, on PRL-induced Stat5 phosphorylation in T47D cells. […] Similar results were found for chXHA.06.275 variants.
In general terms: A western blot detects proteins with antibodies after separation by electrophoresis.

[2] abbreviates: Mus musculus, 120 h, co-administered anti-KLH control Ab 1 ug/ml, read-out: chemotherapeutic IC50 with KLH (1 ug/ml).
Setting [3] is: Mus musculus, 120 h, co-administered chXHA.06.275 1 ug/ml, read-out: chemotherapeutic IC50 with chXHA.06.275 (1 ug/ml).
The mark [4] stands for this setting: Mus musculus, 120 h, co-administered chXHA.06.642 1 ug/ml, read-out: chemotherapeutic IC50 with chXHA.06.642 (1 ug/ml).

Here are results for eight molecules from patent publication US9005614B2, “PRLR-specific antibody and uses thereof” (Novartis AG, priority 2006, dated 2015).

Substitutions are numbered along the chain they refer to. Where two headings read alike, the source gives them in different places.

Regarding `N.N.[Cl][Pt][Cl]` [Cisplatin], the IC50 with BaF3/PRLR cells (co-administered anti-KLH control Ab 1 ug/ml, read-out: chemotherapeutic IC50 with KLH (1 ug/ml)) was determined as 166 nM; in the test on BaF3/PRLR cells (co-administered chXHA.06.275 1 ug/ml, read-out: chemotherapeutic IC50 with chXHA.06.275 (1 ug/ml)), 46.8 nM; with BaF3/PRLR cells (co-administered chXHA.06.642 1 ug/ml, read-out: chemotherapeutic IC50 with chXHA.06.642 (1 ug/ml)), 27.6 nM.

Regarding `COc1cccc2c1C(=O)c1c(O)c3c(c(O)c1C2=O)C[C@@](O)(C(=O)CO)C[C@@H]3O[C@H]1C[C@H](N)[C@H](O)[C@H](C)O1` [Doxorubicin], the IC50 in the test with BaF3/PRLR cells (setting [2]) was 6.44 nM; in the test on BaF3/PRLR cells (setting [3]), 2.56 nM; in the test on BaF3/PRLR cells (setting [4]), 2.14 nM.

For the molecule `Nc1nc(F)nc2c1ncn2[C@@H]1O[C@H](CO)[C@@H](O)[C@@H]1O` [Fludarabine], the IC50 in the test on BaF3/PRLR cells (setting [2]) was 105000 nM; in the test on BaF3/PRLR cells (setting [3]), 93800 nM; in the test with BaF3/PRLR cells (setting [4]), 40000 nM.

`CC(=O)O[C@H]1C(=O)[C@@]2(C)[C@H]([C@H](OC(=O)c3ccccc3)[C@]3(O)C[C@H](OC(=O)[C@H](O)[C@@H](NC(=O)c4ccccc4)c4ccccc4)C(C)=C1C3(C)C)[C@]1(OC(C)=O)CO[C@@H]1C[C@@H]2O` [Taxol]: the results for the IC50 with BaF3/PRLR cells (setting [2]), with BaF3/PRLR cells (setting [3]) and in the test with BaF3/PRLR cells (setting [4]) were 4.14 nM, 2.45 nM and 2.07 nM, respectively.

B1: he.06.275-1: HUMAN-ENGINEERED antibody from XHA.06.275; variable regions SEQ ID NO: 91 and SEQ ID NO: 93 by order of listing (antibody, V domains shown)
VH: DVQLQESGPGLVKPSQTLSLTCTVTGYSITSDYAWNWIRQFPGKKLEWMGYISYSGSTSYNPSLKSRITISRDTSKNQFSLQLNSVTAADTATYFCARDYGYVFDYWGQGTTLTVSS
VL: DVQITQSPSSLSASPGDRITLTCRASKNIYKYLAWYQEKPGKTNNLLIYSGSTLHSGIPSRFSGSGSGTDFTLTISSLQPEDFAMYYCQQHNDYPYTFGQGTKLEIK
As to B1, in the test with cynomolgus PRLR ECD, the ka is 3.6E+05 and the kd amounted to 5.7E−04. In the test with human PRLR ECD, this molecule registered a ka of 6.2E+05 and a kd of 3.1E−04.

B2: he.06.275-2: HUMAN-ENGINEERED antibody from XHA.06.275; variable regions SEQ ID NO: 91 and SEQ ID NO: 94 by order of listing (antibody, V domains shown)
VH: B1 VH with D1Q, T25S, K45G, T93V
VL: B1 VL
With B2, the ka with cynomolgus PRLR ECD amounted to 3.7E+05; with human PRLR ECD, 6.0E+05. Besides, the results for the kd in the test with cynomolgus PRLR ECD and with human PRLR ECD were 6.9E−04 and 3.7E−04, respectively.

B3: he.06.275-3: HUMAN-ENGINEERED antibody from XHA.06.275; variable regions SEQ ID NO: 92 and SEQ ID NO: 93 by order of listing (antibody, V domains shown)
VH: B1 VH
VL: B1 VL with T43A, N45K
As for B3, in the test with cynomolgus PRLR ECD, the ka was found to be 3.9E+05 and the kd was 5.0E−04. In the test with human PRLR ECD, this molecule displayed a ka of 6.4E+05 and a kd of 2.7E−04.

B4: he.06.642-1: HUMAN-ENGINEERED antibody from XHA.06.642; variable regions SEQ ID NO: 88 and SEQ ID NO: 89 by order of listing (antibody, V domains shown)
VH: EVQLVESGGGLVQPGGSLRLSCAVSGFTFSSYGMSWVRQAPGKRLEWVATVSSGGTYTYYPDSVKGRFTISRDNSKNTLYLQMNSLRAEDTAMYYCARHRGNYYATYYYAMDYWGQGTLVTVSS
VL: DIVLTQSPDSLAVSLGERATINCKASKSVSTSGYTYMHWYQQKPGQPPKLLIYLASNRESGVPDRFSGSGSGTDFTLTISPVQAEDVATYYCQHSGELPPSFGQGTKLEIK
On to B4, for which, in the test with cynomolgus PRLR ECD, the ka is listed as 1.2E+05 and the kd was 3.8E−03. In the test with human PRLR ECD, this molecule yielded a ka of 1.7E+05 and a kd of 3.5E−04. Further, the “agonism: induction of PRLR signaling by antibody alone” value in test [1] (T47D cells treated with mAb alone) is on record as “neither antibody displayed any agonistic activity”. For the same molecule, the “block of PRL-induced signaling (phospho-PRLR, phospho-Stat5)” value in test [1] (T47D cells, 1 or 10 ug/ml mAb, then PRL 50 ng/ml 30 min) is listed as “complete p-Stat5 signal abrogation”.
